# Experimental data: the RNAGym collection of RNA variant scans (doi:10.1073/pnas.2313332121)
# B1: TPR t1 (parent)
# chain: GACCAAUCUGCCCUCAGAGCUCGAGAACAUCUUCGGAUGCAGAGGAGGCAGGCUUCGGUGGCGCGAUAGCGCCAACGUCCUCAACCUCCAAUGCAUCCCACCACAUGAUGAUGCCUGAAGAGCCUUGGUUUUUUG
# Variants of: B1
# Experiment: polymerase ribozyme fitness, log enrichment relative to wild type (log ratio); higher = more active; in vitro selection for triplet polymerase activity
# In short: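 Libraries of mutants in each subunit of a heterodimeric triplet polymerase ribozyme were generated by PCR and transcribed. In triplicate, each went through one in vitro selection round: annealing with biotinylated primer, partner subunit and triplets; frozen incubation at −7 °C; gel excision of extended constructs; streptavidin-bead capture; RT-PCR. Fitness, taken from Illumina sequencing of input and output libraries, is the logarithm of a genotype's enrichment over wild-type enrichment, averaged across replicates with inverse-variance weights. The logarithm is base 2, and genotypes needed ≥10 input reads and ≥1 read per output to be kept.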
row,Variant,polymerase ribozyme fitness (log ratio)
1,A43U C49A C114G,-1.78
2,U9G A26G C70G A84U U112A,-4.4
3,C94A C124A U125C U131A,-0.191
4,C72U A90C,-1.33
5,G61A C97G C124U,-2.04
6,C49G G60C,-1.97
7,G71C G93A,-1.77
8,G47U G48U G63U A111G,-4.04
9,C72U U78C C97U,-1.02
10,G10C G71U C114A A118C,-6.14
11,C62A C79A G117C,-6
12,G36U U59C C86U,-1.77
13,C3U G61A U78G U112G,-0.547
14,C8A C101U G117U,-0.423
15,U96G G113C,-2.59
16,A84U C97U,-0.894
17,C8U A50G U78A C85A,-0.938
18,C8G U14G A43C G47U C82G U133A,-3.36
19,C70A G93A U116C C123A,-5.19
20,G58C G117A,-0.561
21,C11U C20A U87A A91C A118U,-2.95

row,Variant,polymerase ribozyme fitness (log ratio)
1,C115U G127C,-2.76
2,G71A C101U,-0.59
3,C12A A41C C72U U92G A111G,-1.91
4,G52A G71U U87A U131G,-2.35
5,A37G A95C,-1.66
6,G69U C72G C102U U125G,-1.81
7,U7A G48C C85U G120C,-0.382
8,U38A C49U G110U,-4.28
9,C40A A46G U132A,-1.49
10,G19A C34A C89A,-6.24
11,G48U C73U U109A G110U A119U,-4.88
12,U38A C102A,-4.22
13,G45C G61U C86U U87G G93C,-2.62
14,G39A A68G C115G U130A,-6.03
15,C82U G127A,-1.24
16,G36U G42U C56G C70U U112C C124U,-2.29
17,C40U C70U A84G,-2.34
18,C3U U14A C53G C64U G120A,0.544
19,G45A C53G C64U,-0.958
20,G57C U116C,-0.186
21,U7A G61C A91C C114A C115G,-7.29

row,Variant,polymerase ribozyme fitness (log ratio)
1,C76A C85A,-0.928
2,A108G U112A,-2.86
3,C70A G122U,-1.64
4,C12U C40U,-0.543
5,C15U U21A U96G A118U,-0.0472
6,C40G G52U,-2.76
7,G45U G113U,-3.73
8,C49U G61C G71A A95G G113U,-7.48
9,C3U G110U,-1.54
10,G25A C40U G93C C101U C104G C115U A118G,-6.52
11,C8G C15U U54G G117C,0.947
12,C8A U112A C123A,1.22
13,C15U G39C A66U G69C A75U,-3.53
14,G35A C99A C123A,-6.8
15,A29G U32C U106A,-2.24
16,A6G U30C G63A A111U G127C,-5.37
17,A24G C40A G117A C124G,-4.17
18,C8G A16C C62U C94A U112G U130C,-1.66
19,C20G G36A A121C,-3.32
20,C22U C62A,-4.41
21,G60U C70U,-2.43

row,Variant,polymerase ribozyme fitness (log ratio)
1,C104U A118U U131A,0.243
2,C82A U112A U131A,1.09
3,C89A A90G,-1.53
4,C11A C12U U38A U78C U96A,-2.53
5,G52U C73U U96G A121G,1.57
6,G10C G69U G107C G120U,-2.44
7,A50G C73A U106G,-1.39
8,C22A C73G C82A G120U U125C,-5.37
9,C62U U132A,-0.469
10,U9A A16U C64U C73U,0.678
11,U59A U112A,1.47
12,A16G G35A A37G A84U A121G,-3.58
13,G93U C102A G120A,-2.52
14,U7C A18C U78C C82U,-1.52
15,G23C C56A U59G G113A,-6.74
16,C11U G52A C80U,-2.45
17,C15G A84U,-2.56
18,C20G C94U C114A G122U U125G,-6.15
19,G39U A90G C98U C102A,-4.8
20,U9G U38G C70U A105U,-4.46
